Data taken from patent publication US7364741.

What was measured:
[1] = target: HLA-A24 molecules isolated from the EBV transformed cell line KT3 (human)
[2] = target: HLA-A1 molecules isolated from the EBV transformed cell line Steinlin (human)
[3] = target: HLA-A11.2 molecules isolated from the cell line BVR (human)
[4] = target: HLA-A3.2 molecules isolated from the EBV transformed cell line GM3107 (human)
[5] = target: HLA-A2.1 molecules expressed by 174CEM.T2 cells (human); test: T2 HLA-A2.1 stabilisation, flow cytometry (BB7.2), peptide 200 ug/ml
[6] = target: HLA-A2.1 molecules isolated from the EBV transformed cell line JY (human)

## … (residues 85-93 of HPV16 protein E6), synthesized with alanine instead of cysteine (peptide; other documents disagree on this pair)
[1]
  binding ratio to standard: 0.0037

## … (residues 144-152 of HPV16 protein E6), synthesized with alanine instead of cysteine (peptide; other documents disagree on this pair)
[2]
  binding ratio to standard: 0.019

## … (residues 140-148 of HPV16 protein E6), synthesized with alanine instead of cysteine (peptide; other documents disagree on this pair)
[3]
  binding ratio to standard: 0.0012

## … (residues 60-68 of HPV16 protein E7), synthesized with alanine instead of cysteine (peptide; other documents disagree on this pair)
[4]
  binding ratio to standard: 0.0012

## … (residues 145-153 of HPV16 protein E6), synthesized with alanine instead of cysteine (peptide; other documents disagree on this pair)
[4]
  binding ratio to standard: 0.02

## … (residues 143-151 of HPV16 protein E6), synthesized with alanine instead of cysteine (peptide; other documents disagree on this pair)
[4]
  binding ratio to standard: 0.18
[3]
  binding ratio to standard: 0.0084

## … (residues 38-46 of HPV16 protein E6), synthesized with alanine instead of cysteine (peptide; other documents disagree on this pair)
[4]
  binding ratio to standard: 0.0012
[3]
  binding ratio to standard: 0.0022
[1]
  binding ratio to standard: 0.0011

## … (residues 69-77 of HPV16 protein E6), synthesized with alanine instead of cysteine (peptide; other documents disagree on this pair)
[4]
  binding ratio to standard: 0.0025
[3]
  binding ratio to standard: 0.003

## … (residues 37-45 of HPV16 protein E6) with alanine instead of cysteine (peptide; other documents disagree on this pair)
[4]
  binding ratio to standard: 0.032
[3]
  binding ratio to standard: 0.045

## … (residues 58-66 of HPV16 protein E7), synthesized with alanine instead of cysteine (peptide; other documents disagree on this pair)
[4]
  binding ratio to standard: 0.0016
[3]
  binding ratio to standard: 0.011

## … (residues 33-41 of HPV16 protein E6), synthesized with alanine instead of cysteine (peptide; other documents disagree on this pair)
[4]
  binding ratio to standard: 1.5
[3]
  binding ratio to standard: 6.7

## … (residues 87-95 of HPV16 protein E6), synthesized with alanine instead of cysteine (peptide; other documents disagree on this pair)
[1]
  binding ratio to standard: 0.12

## … (residues 84-92 of HPV16 protein E6), synthesized with alanine instead of cysteine (peptide; other documents disagree on this pair)
[4]
  binding ratio to standard: 0.0036

## … (residues 86-94 of HPV16 protein E7) (peptide)
[5]
  FI (Fluorescence Index): 2.5
  MF (mean fluorescence): 228

## … (residues 90-98 of HPV16 protein E7), synthesized with alanine instead of cysteine (peptide; other documents disagree on this pair)
[3]
  binding ratio to standard: 0.0012

## … (residues 68-76 of HPV16 protein E6), synthesized with alanine instead of cysteine (peptide; other documents disagree on this pair)
[4]
  binding ratio to standard: 0.0056
[3]
  binding ratio to standard: 0.0037

## … (residues 79-87 of HPV16 protein E6) with alanine instead of cysteine (peptide; other documents disagree on this pair)
[4]
  binding ratio to standard: 0.0044
[3]
  binding ratio to standard: 0.0076

## … (residues 146-154 of HPV16 protein E6), synthesized with alanine instead of cysteine (peptide; other documents disagree on this pair)
[4]
  binding ratio to standard: 0.002

## … (residues 66-74 of HPV16 protein E6), synthesized with alanine instead of cysteine (peptide; other documents disagree on this pair)
[1]
  binding ratio to standard: 0.0055

## … (residues 72-80 of HPV16 protein E6), synthesized with alanine instead of cysteine (peptide; other documents disagree on this pair)
[1]
  binding ratio to standard: 0.11

## … (residues 82-90 of HPV16 protein E6), synthesized with alanine instead of cysteine (peptide; other documents disagree on this pair)
[1]
  binding ratio to standard: 0.046

## […] (residues 82-90 of HPV16 protein E7) (peptide; other documents disagree on this pair)
[5]
  FI (Fluorescence Index): 0.8
  MF (mean fluorescence): 119

## … (residues 67-75 of HPV16 protein E6), synthesized with alanine instead of cysteine (peptide; other documents disagree on this pair)
[4]
  binding ratio to standard: 0.0012
[3]
  binding ratio to standard: 0.0074

## … (residues 19-27 of HPV16 protein E7), synthesized with alanine instead of cysteine (peptide; other documents disagree on this pair)
[2]
  binding ratio to standard: 0.023

## … (residues 51-59 of HPV16 protein E7), synthesized with alanine instead of cysteine (peptide; other documents disagree on this pair)
[4]
  binding ratio to standard: 0.026
[3]
  binding ratio to standard: 0.001

## … (residues 80-88 of HPV16 protein E6), synthesized with alanine instead of cysteine (peptide; other documents disagree on this pair)
[4]
  binding ratio to standard: 0.0064
[3]
  binding ratio to standard: 0.43

## … (residues 52-60 of HPV16 protein E6), synthesized with alanine instead of cysteine (peptide; other documents disagree on this pair)
[6]
  binding ratio to standard: 0.37

## […] (residues 25-33 of HPV16 protein E6) (peptide; other documents disagree on this pair)
[5]
  FI (Fluorescence Index): 0.6
  MF (mean fluorescence): 108

## … (residues 139-147 of HPV16 protein E6), synthesized with alanine instead of cysteine (peptide; other documents disagree on this pair)
[2]
  binding ratio to standard: 0.02

## … (residues 52-60 of HPV16 protein E7), synthesized with alanine instead of cysteine (peptide; other documents disagree on this pair)
[4]
  binding ratio to standard: 0.0067
[3]
  binding ratio to standard: 0.006

## … (residues 97-105 of HPV16 protein E6), synthesized with alanine instead of cysteine (peptide; other documents disagree on this pair)
[4]
  binding ratio to standard: 0.0045

## … (residues 107-115 of HPV16 protein E6), synthesized with alanine instead of cysteine (peptide; other documents disagree on this pair)
[4]
  binding ratio to standard: 3.7
[3]
  binding ratio to standard: 0.012
